The source of these data is the nanobody polyreactivity screen of Harvey et al. (2022).

This data set in a line: yeast display, Sf9 membrane polyspecificity reagent, FACS + sequencing; frameworks hold sequencing errors. In a few lines: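 Sorting gates, low and high (top ~1%), were placed on anti-HA fluorescence to track expression and on streptavidin fluorescence to track reagent binding. A clone's polyreactivity label is taken from the gate it came out of. The reagent was 10% biotinylated, detergent-solubilized Sf9 membrane, applied for 1 hour at 4 °C to galactose-induced yeast display cells.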
Regarding “QVQLVESGGGLVQAGGSLRLSCAASGYTFLANAMGWYRQAPGKERELVAAISSGGTTYYADSVKGRFTISRDNAKNTVYLQMNSLKPEDTAVYYCAAKDTTVFYYDDDYWGQGTQVTVSS”, the “polyreactivity (PSR sort gate)” value is “low polyreactivity”.
The same measure for “QVQLVESGGGLVQAGGSLRLSCAASGYTFLAYAMGWYRQAPGKERELVAAISSGGRTYYADSVKGRFTISRDNAKNTVYLQMHSLKREDTAVYYCAAYPLRYRQYWGFVYWGQGTQVTVSS”: “high polyreactivity”.
As for “QVQLVESGGGLVQAGGSLRLSCAASGYTFLDYAMGWYRQAPGKERELVAAINSGGSTYYADSEKGRFTISRDNAKNTVYLQMNSLKPEDTAVYYCAVDPPYSYSLSRYGYWGQGTQVTVSS”, the entry is “low polyreactivity”.
As for “QVQLVESGGGLVQAGGSLRLSCAASGYTFNKYAMGWYRQATGKGRELVATIRNGGNTYYADSVKGRFTISRDNAKITVYFQMNSLKPEDTAVYYCAATVRGVGYRYYYWGQGTQVTVSS”, the entry is “high polyreactivity”; as for “QVQLVESGGGLVQAGGSLRLSCAASGYTFPDYAMGWYRQAPGKERELVAAFRSGGGTNYADSVKGRFTISRDNAKNTVYLQMNSLKPEDTAVYYCAKEWAGGLYDYWGQGTQVTVSS”, “low polyreactivity”; as for “QVQLVESGGGLVQAGGSLRLSCAASGYTFPFYTMGWYRQAPGKERELVAAINSGGSTYYADSVKGRFTISRDNAKNTVYLQMNSLKPEDTAVYYCGAGRHSEDNYWGQGTQVTVSS”, “high polyreactivity”.
For “QVQLVESGGGLVQAGGSLRLSCAASGYTFPRYTMGWYRQAPGKERELVAAINWSGGSTYYADSVKGRFTISRDNAKNTVYLQMNSLKPEDTAVYYCNKAYVSRYDYWGQGTQVTVSS”, the “polyreactivity (PSR sort gate)” value is recorded as “high polyreactivity”.
Turning to “QVQLVESGGGLVQAGGSLRLSCAASGYTFPTYAMGWYRQAPGKERELVAAISIDDGITYYADSVKGRFTISRDNAKNTVYLQMNSLKPEDTAVYYCAADVGIEYDYWGQGTQVTVSS”, the “polyreactivity (PSR sort gate)” value was “high polyreactivity”.
The same measure for “QVQLVESGGGLVQAGGSLRLSCAASGYTFQWYDMGWYRQAPGKERELVASISWRGGSTYYADSVKGRFSISRDNATITVSLQMNSLKPEDTAVYYCAASLWPDYEYDYWGQGTQVTVSS”: “low polyreactivity”; for “QVQLVESGGGLVQAGGSLRLSCAASGYTFRFNAMGWYRQAPGKEREFVAAIDFGGAGTYYADSVKGRFTISRDNAKNNVYLQMHSLKPEDTAVYYCNARDGVTSEFDYWGQGTQVTVSS”: “low polyreactivity”; for “QVQLVESGGGLVQAGGSLRLSCAASGYTFRRYAMGWYRQAPGKERELVAAITSRGGSTYYADSVKGRFTISRDNAKNTVYLQMNSLKPEDTAVYYCAADASAYSVLTRDYWGQGTQVTVSS”: “high polyreactivity”.
As to “QVQLVESGGGLVQAGGSLRLSCAASGYTFRRYAMGWYRQAPGKERELVAGITRTGNTNYADSVKGRFTISRDNAKNTVYLQMNSLKPEDTAVYYCARDLGGYKRLYDYWGQGTQVTVSS”, the “polyreactivity (PSR sort gate)” value is “high polyreactivity”.
As for “QVQLVESGGGLVQAGGSLRLSCAASGYTFRSNTMGWYRQAPGKERELVAAISGRGSSTYYADSVKGRFTISRDNAKNTVYLQMNSLKPEDTAVYYCAAQSKYYQYYSWGQGNQVTVSS”, the entry is “high polyreactivity”.
Turning to “QVQLVESGGGLVQAGGSLRLSCAASGYTFRSYAMGWYRQAPGKERELVAGIDGSGGTTYYADSVKGRFTISRDNAKNTVYLQMNSLKPEDTAVYYCAAEAYKHGVWDYDYWGQGTQATVSS”, the “polyreactivity (PSR sort gate)” value was “low polyreactivity”.
For the sequence “QVQLVESGGGLVQAGGSLRLSCAASGYTFRVYTMGWYRQAPGKERELVAAISRRGSRTYYADSVKGRFTISRDNAKNSVYLQMNSLKPEDTAVYYCAAGIPYPDDYWGQGTQVTVSS”, the “polyreactivity (PSR sort gate)” value is recorded as “high polyreactivity”.
As for “QVQLVESGGGLVQAGGSLRLSCAASGYTFRVYTMGWYRQAPGKERELVAAISRRGSRTYYADSVKGRFTISRDNAKNTVYLQMNSLKPEDTAVYYCAAGIPYPDDYWGQGTQVTVSS”, the entry is “high polyreactivity”.
The same measure for “QVQLVESGGGLVQAGGSLRLSCAASGYTFRYYAMGGYRQAPGKERELVADINSGDITNYADSVKGRFTISRDNAKNTVYLQMNSQKPEDTAVYYCAPRTFSLYDYWGQGTQVTVSS”: “low polyreactivity”.
Turning to “QVQLVESGGGLVQAGGSLRLSCAASGYTFRYYAMGWYRQAPGKERELVAAINWSGGSTYYADSVKGRFTISRDNAKNTVYLQMNSLKPEDTAVYYCAADPDGDLDIDYDYWGQGTQVTVSS”, the “polyreactivity (PSR sort gate)” value is recorded as “low polyreactivity”.
As for “QVQLVESGGGLVQAGGSLRLSCAASGYTFRYYAMGWYRQAPGKERELVARITGRAGSTYYADSVKGRFTISRDNAKNTVYLQMNSLKPEDTAVYYCAASIREGFYWGQGTQVTVSS”, the entry is “high polyreactivity”.
As for “QVQLVESGGGLVQAGGSLRLSCAASGYTFSGYAMGWYRQAPGKERELVAAISGSSTRTYYADSVKGRFTITRDYAKNTVYFQMNSLKPEDTAVYYCAARFRHGGPYKYGYWGHGTQVTVSS”, the entry is “high polyreactivity”; as for “QVQLVESGGGLVQAGGSLRLSCAASGYTFSHYAMGWYRQAPGKERELVAGITWSGGSTYYADSVKGRFTISRENSKNTVYLQMNSLKPEDTSVYYCAAKYYWYYSYSGIPLFDYWGQGTQVTVSS”, “low polyreactivity”.
The same measure for “QVQLVESGGGLVQAGGSLRLSCAASGYTFSRYAMGLYRQAPGKERELVAAISHSAGRTYYADSVKGRFTISRDNAKNTVYLKMNSLKPEDTAVYYCATVLYSVPRYNYWGQGSQVTVSS”: “high polyreactivity”; for “QVQLVESGGGLVQAGGSLRLSCAASGYTFSRYAMGWYRQAPGKERELVAAITGRGGSTYYADSVKGRFTISRDNAKNTVYLQMNSLKPEDTAVYYCAAPFGWRPLPISKVTSDYWGQGTQVTVSS”: “high polyreactivity”.
In the case of “QVQLVESGGGLVQAGGSLRLSCAASGYTFSYYAMGWYRQAPGKERELVAAISWSGGSTYYADSVKGRFTISRDNAKNTVYLQMNSLKPEDTAFYYCAAKPWRGTLMRYGYWGQGTQVTVSS”, the “polyreactivity (PSR sort gate)” value is “high polyreactivity”.
In the case of “QVQLVESGGGLVQAGGSLRLSCAASGYTFTIYAMGWYRQAPGKERELVAAITGRGGRTNYADSVKGRFTISRDNAKNTVYLQMNSLKPEDTAVYYCAKGGRSSSPRYRFDYWGQGTQVTVSS”, the “polyreactivity (PSR sort gate)” value is “high polyreactivity”.
The same measure for “QVQLVESGGGLVQAGGSLRLSCAASGYTFWDYAMGWYRQAPGKEREFVAGISFSDGGTYYADSVKGRFTITRDNAKNTVYLQMNSLKPEDTAVYYCAATYPYSWVYSGYYYWGQGTQVTVSS”: “low polyreactivity”; for “QVQLVESGGGLVQAGGSLRLSCAASGYTFWFYAMGWYRQAPGKEREFVATISRSGGSTYYADSVKGRFTISRDNAKNTVYLQMNSLKPEDTAVYYCNARGPRSHRYDYWGQGTQVTVSS”: “high polyreactivity”; for “QVQLVESGGGLVQAGGSLRLSCAASGYTFWQYAMGWYRQAPGKERELVATITSRGGSTYYADSVKGRFTISRDNAKNTVYLQMNSLKPEDTAVYYCNARRRYSTRRSDYWGQGTQVTVSS”: “high polyreactivity”.
As for “QVQLVESGGGLVQAGGSLRLSCAASGYTFYANAMGWYRQAPGKEREFVASITWSGGSTYYADSVKGRFTISRDNAKNTVYLQMNSLKPEDTAVYYCADESWFKYDYWGQGTQVTVSS”, the entry is “low polyreactivity”; as for “QVQLVESGGGLVQAGGSLRLSCAASGYTFYDYAMGWYRQAPGKERELVARINGGGGTNYADSVKGRFTISRDNAKNTVYLQMNSLKPEDTAVYYCAADVYFRQGDVDLLRYDYWGQGTQVTVSS”, “low polyreactivity”.
The same measure for “QVQLVESGGGLVQAGGSLRLSCAASGYTFYFYAMGCYRQAPGKERELVAAITGGGTTSYADSVKGRFTISRDNAKNTVYLQMNSLKPEDTAVYYCNVLFADKSDYWGQGTQVTVSS”: “low polyreactivity”.
Turning to “QVQLVESGGGLVQAGGSLRLSCAASGYTFYFYAMGWYRQAPGKERELVASITWRGGSTYYADSVKGRFTISRDNAKNTVYLQMNSLKPEDTAVYYCAKQVYYIYDYWGQGTQVTVSS”, the “polyreactivity (PSR sort gate)” value is listed as “low polyreactivity”.
As for “QVQLVESGGGLVQAGGSLRLSCAASGYTFYRNAMGWYRQAPGKERELVASLRDDGSTYYADSEKGRFTISRDNAKNTVYLHMNSLKPEDTAVYYCNSDYPYIWHKGARYWHENDYWGQGTQVTVSS”, the entry is “low polyreactivity”; as for “QVQLVESGGGLVQAGGSLRLSCAASGYTFYVYAMGWYRQAPGKERELVADISTSDGSTYYADSVKGRFTISRDNAKNTVYLQMNSLKPEDTAVYYCNTDGSHGLYDWFWPANNDDWGQGTQVSVSS”, “low polyreactivity”; as for “QVQLVESGGGLVQAGGSLRLSCAASGYTIRGYVMGWYRQAPGKERELVAAISASGGRTYYADSVKGRFTISRDNAKNTVYLQMNSLKPEHTAVYYCAASKSKISSLDYWGQGTQVTVSS”, “high polyreactivity”.
The same measure for “QVQLVESGGGLVQAGGSLRLSCAASGYTIYRYAMGWYRQAPGNERELVAAISSAGTTNYADSVKGRFTISRDNAKNTVYLQINSLKPEDTAVYYCNKRGRNHNSLKYGYWGQGTQVTVSS”: “high polyreactivity”.
For the sequence “QVQLVESGGGLVQAGGSLRLSCAASGYTIYYYAMGWYRQAPGKERELVARITSGGSTYYADSVKGRFTISRDNAKNTVYLQMNSLKPVDTAVYYCNVEVSVEVAYWGQGTQVTVSS”, the “polyreactivity (PSR sort gate)” value was “low polyreactivity”.
As to “QVQLVESGGGLVQAGGSLRLSCAASGYTLRYYAMGWYRQAPGKERELVAAITYSGGSTYYADSVKGRFTISRDHAKNTVYLQMNSLKPEDTAVYYCAADYRAPLDYWGQGTQVTVSS”, the “polyreactivity (PSR sort gate)” value was “low polyreactivity”.
“QVQLVESGGGLVQAGGSLRLSCAASGYTQPANGMGLYRQAPGKERELVAAISFIAGSTYYADSVKGRFTISRDNAKNTVYLQMNSLKPEDTAVYYCATQFPPSTIYDYWGQGTQVSVSS”: the “polyreactivity (PSR sort gate)” value was “low polyreactivity”.
As for “QVQLVESGGGLVQAGGSLRLSCAASGYTSYRYAMGWYRQAPGKERELVAAINWSGSSTYYADSVKGRFTISRDYAKNTVYLQMNSLKPEDTAVYYCAARRYRSPIGGYDYWGQGTQVTVSS”, the “polyreactivity (PSR sort gate)” value is given as “high polyreactivity”.
As for “QVQLVESGGGLVQAGGSLRLSCAASGYTYPYYTMGWYRQAPGKERELVAAISSGGRTKYADSVKGRFTISRDNAKNTVYLQMNSLKPEDTAVYYCAKSGNYRTGRFDYWGQGTQVTVSS”, the entry is “high polyreactivity”.
